Among the data in US20230226096A1 (Orna Therapeutics, Inc., priority 2020, published 2023) are Expression values, retold here.

The data set relates to HEK293 cells. The data set is classed as cell-based, human. The settings on record: luminescence from secreted Gluc in supernatant 24 hours after transfection of HEK293 cells; circular RNA encoding Gluc with the named IRES (UTR truncated to 675 nt).

B1: Canine picodicistrovirus strain 209 (nucleic acid)
DNA: CGCTCTTTATACAAATCTGTCAACCCTTTGTATAACTCTAAGCCGAACAATTATAGCTAGGCTTTTTATTATATAACATTAATTAGGCATTAGCGTTGTCGCCAATCTCTTGGTAATCCTAAGGATACCTTTCCTGTTGACTAAGATGAAGCGCCTTCGGTTACCGATGCCCGGTGTCCACGAAGCCATCGTGGTCGGCCGCGTCCCCCACCTCTCCCAACTTGGACTCCATGTTTTCAGTAGGTGTAATGATTAGTATTATTGATTCTGCTCGTTCAATGTGTTTATCTTCACGATCTGGGACCCAACACATGCTTCACTCATGTTTAAATGTTGGTTCCCTCATTTTGAAGACACCCAAACCATAGAGTGCGAGAATGAGGATTTCTACTTCCATTCTGGTAACAGAAATGAATTCCTGCGTGTGTCTCGTAAATGGAATCTTTAAGAACTTCAGATAAATCGAACAATACACTAATACAAGTTGTTTTCTACCAACATGTTCAATGCGGCTAATCTGACCGTGGAGCTGTGAAGCGCTCAAACCCGAGTGTTGTATACAGTCGTAATGCGTAAGTCCATGAGGAACCGACTACTGTTACCTCTGTTGGTGTGTTTCTCCTTTCCTCTCTTTTATTATTATTTGTTATTGCAAATACTACAACTTTGATCAAC
On to B1, for which the Expression turned out to be 2.79E+06.

B2: Bovine viral diarrhea virus 3 (nucleic acid)
DNA: GTATACGCCCAGTTAGTTCAGGTGGACGTGTACGATTGGGTATCCCAAATTAATAATTTGGTTTAGGGACTAAATCCCCTGGCGAAGGCCGAAACAGGTTAACCATACCTTTAGTAGGACGAGCATAATGGGGGACTAGTGGTGGCAGTGAGCTCCCTGGATCACCGAAGCCCCGAGTACGGGGTAGTCGTCAATGGTTCGACGCATCAAGGAATGCCTCGAGATGCCATGTGGACGAGGGCGTGCCCACGGTGTATCTTAACCCAGGCGGGGGCCGCTTGGGTGAAATAGGGTTGTTATACAAGCCTTTGGGAGTACAGCCTGATAGGGTGTTGCAGAGACCTGCTACACCACTAGTATAAAAACTCTGCTGTACATGGCAC
B2: the Expression was 2.70E+06.

B3: Canine distemper virus (nucleic acid, listed as Canine morbillivirus)
DNA: ACCAGACAAAGTTGGCTAAGGATAGTTAAATTATTGAATATTTTATTAAAAACTTAGGGTCAATGATCCTACCTTAAAGAACAAGGCTAGGGTTCAGACCTACCAAT
modifications: chemistry not fully specified
B3 came in with an Expression of 3.02E+05.

B4: Bovine picornavirus isolate TCH6 (nucleic acid)
DNA: TTGGATCTGAGCAGGGGCCCCCTTTGGGTTGCTTTACAACTCAACTGGGGGTTAAAAAACGTCTAACCCGACACGCCAGAGGGATCTGGTTTCCTTTTATTTCTTTTACTCACCACTGGATGCAGATTGACGATAAACGTTGTTGTTTGTGACTATTGACTTGATCTGCTTCTACGGGTTTACTTTCACTGTTATACTTCTTGCTTTGTTTGGTGTTCACTGTACTTTGTCTCCTTCTACATTTCACA
Take B4: the Expression was determined as 1.21E+05.

B5: Bovine nidovirus TCH5 (nucleic acid, listed as Bovine nidovirus)
DNA: CACCAATAGATTAGTCAAGCTGTCTATAGGCATAAACTAACCCCCAACCCCATTACCCCGGGGCCAGGTGGGCCGCCGCCTTCGGGCAAACCCGTGCGCTGGTATAATCAAGGTTCACAGCCAGATTCACTGCCGGTTAGCTAGTGGGGCGGTAGCCTGGCAAAACCCGAAGAGGTTGGAAAGGGAACTTCAGGGTAGTTTATCCTAGGCTAGCGTAGCTACAGTTCGGTCAAGATAACCGTCCTGGTGCTAGGGCTAGTAGAGACAGTGGTAACTTGGACAAGGGTCCAGGGCCACTTTAGGGAATACCCTACGGAAGGCTAGGTCCGTAAGGAAGACCCCCGCAGTTGTCCGCGGTTGAGCAGAGCTCCTGCGTAGACAAAAGGCAAAAAGTGGATTACATTCGCCTGCAGGAAAAGGCAAACGTCGTTGGAGTCGGAGCTAAAGTACTGGACGATTGATACCACGCCTGCTGCGGTAGATAAA
For B5, the Expression came out at 1.17E+05.

B6: Botrytis cinerea mitovirus 4 RdRp (nucleic acid, listed as Mitovirus sp.)
DNA: GCCCCGCCGACCTTCCTATTTATTTCTAAATAGGAAGGTCCCGACTAGTCGGATAATTCGGTTTAACGAATTATGGTTAGATCTATTAAAGTTAAAATAGATTGAATTTCTTTCTCATCCTCCTTATTCCTATACTTTGGGAGTAAATGACAAATGTCTATCCTCAAACCGAAATGGCTTAAGTGATGAATTTGAAAGAAAGGTAGGTTTTAAGAATATAAGGCATCAATATATTATACCCTTGAATGTTAAGTGACCACGGCGTGACGATTAGGGCTATCTTAGGATAGACAGCCATCTAACGCGACAGCAGTGGAAATCAGCTTAGCATCTCAAGATCATGTATAATATATACATAACCTTACAATTATAAAACCAAACCAAAACACACTATAATTTTATATAAATTATAGAAGTATCGGACCTGGACGGTACCTACTATTAACTGATAGTAGCCAAATGCAGGAAGCTC
B6 returned an Expression of 9.68E+04.

B7: Bovine hepacivirus (nucleic acid, listed as Hepacivirus sp.)
DNA: CCATCGACACTCCAGGCTCACGGATTAAGTTAGGTTCCGCCGAAGCGGGCTAACCAGGCCCCTAGTAGGAGGCGCCTATCCCGTGAGCCCTTTCCCCACGGATTGAGTGGAGCTGGAGCTGGGAAGGACCGAGTACGGTCCAATCGAGAAGAACCCTGATGAACATTCCAGGCCTCTTCGGTAGATTTGGATATATCCACCAGTGAAGGCGGGGTCGTGGGTACAGGCCCCCTAGTCCACACAGCCTGATAGGGTCCTGCCGCAGGATCCGTGGGTGCGGCTGTACATGTACC
Consider B7, for which the Expression amounted to 1.89E+05.

B8: Rafivirus WHWGGF74766 (nucleic acid, listed as Rafivirus sp.)
DNA: TGCGAATTTATTCGCACAGTCTCTTTTCCCCCATCTTGTGTGTGTGATGGGGTAAGCCGCAGAGTAATACCTACTCTGCTGCAAACACACTCACTCTTTTCTATCTACTTTATATCATGTAATAATAAGTAGGGAACATATTCAATTCATATTGTTCATCTCACTGAACCCGCATGAAGGACTGCATTGCATATCCTGGACGAAGTGACGTGGAATATTTGGACATTTATGGATTGGACACCATTACGCTTTGTGCCTCTACGGAGATGTAACCATAATCTTAAGTAGTAGTACCCCAGCACAAGAGGATAAAGTGGCATACACGACAACGGGTGTTGCTCGCACCTTAGTAATGTGGATGTTCACCCTTGGAGCGTGCTGAAACTCTGTGGGTAAAGACACACATTAGTACAAATGTGGGGGAACTCACTGAAAGGGCATGTCCCGTGTACTGGTGTGCCGGAAAGTGGGGGTCGCTTTCTGGAGAACTTAGTAGTTCTTGTTATTGGGTGATAGCCTTGCGGCGGATCAACTCACAGTTTTAATCCGTTGTTTTGCAT
For the molecule B8, the Expression is given as 4.53E+06.

B9: Bovine rhinitis A virus (nucleic acid)
DNA: TTTTGCGGCTCTGCCGCCGTTCGGGTTTTACCTGTTTTCACAGAGCAAAACAGGACCTCTAGTTTCGTGCTTAAACGAGATCATGCTCGAACTAGAACTATAACGCTGGTCACTGGACCCGTGCCGCGCCTTGCGGATCTTTGCGGGAATGGTGGCTAGTGGGCTGTGGAAGTGACTCTAACCACACGCCCCTCAAGTGTGGGAAAACACGAACTGGTGTAGCGACGACGATAGGCCTTGGGACACCCTCTCCAGTGATGGAGACCCAAGGGGCCAAAAGCCACGCCTTGTGCCCTGTCGTTCACAACCCCAGTGCAGTTCGTGCCAGTACCTGCTTTTGGGAAGTGTGCTTTGGACAGCTGAAAACAGTCCTAGTGGGAGACTAAGGATGCCCAGGAGGTACCCGGAGGTAACAAGTGACACTCTGGATCTGACTTGGGGAGAGCGGGTCTGCTTTACAGACGCCACTCTTTAAAAAACTTCTATGTCTCGTCAGGCACCGGAGGCCGGGCCTTTTCCTTTAAAACAATACACTTT
modifications: Bovine rhinitis A virus
B9 registered an Expression of 3.62E+06.

B10: Botrytis cinerea mitovirus 2 RdRp (nucleic acid, listed as Mitovirus sp.)
DNA: GGAACTTTTCAGTTCCAGAAGTGGCTTTATTAAGCCTTCAAAGTTTACACTTTGAACCTGCGATTAATTCCCCATAGTGACTCTTGTTACTGTGAATTAGGAATAGTTGTAGTTCAACTTCTAATGAGGTGAACAATATAATAACTCATCTTATTAACCCTATACGTAGACAATTGTCCAAAGAGACAGTTGGAATTCTGCCAATCTGGAATGTTTGGTACGCGTAGAAGATAATAAGAGACCCTCTATTCCCCTGCCTCATGACTAAGTCATGGCCCGGGGTGTAATAGAGATACTTTTATATATTATACAATC
Regarding B10, the Expression was 8.73E+04.

B11: Canine kobuvirus (nucleic acid, listed as Kobuvirus sp.)
DNA: TTTAAGTGTTGTGCCCAATCTCTTGACTCCTGCTGGAACCACCGACCAGTAGTGTCCAAAATGCCAGGTGGAAAATCCTCCCTTCCCCTCTGGGCTTCATGCCCGGCATCCTCCCCCCAGCCTGACGTGCCACAGGCTGTGCAAAGACCCCGCGAAAGCTGCCAAAAGTGGCAATTGTGGGTCCCCCCTTTGTCAAGGCGTCGAGTCTTTCTCCCTTAAGGCTAGTCCTGTCAGTGAACTCTGTCGGGCAACTAGTGACGCCACTGCATGCCTCCGACCTCGGCCGCGGAGTGCTGCCCCCCAAGTCATGCCCCTGACCACAAGTTGTGCTGTCTGGCAAACATTGTCTGTGAGAATGTTCCGCTGTGGCTGCCAAGCCTGGTAACAGGCTGCCCCAGTGTGCGTAATTCTCATCCAGACTTCGGTCTGGCAACTTGCTGTTAAGACATGGCGTAAGGGGCGTGTGCCAACGCCCTGGAACGAGTGTCCACTCTAATACCCCGAGGAATGCTACGCAGGTACCCCTGGCTCGCCAGGGATCTGAGCGTAGGCTAATTGTCTAAGGGTATTTTCATTTCCCACCCTCTTCTTCTTGTTCATA
Regarding B11, the Expression is recorded as 1.48E+08.

B12: Breda virus (nucleic acid)
DNA: ATCACCTAGTACTTACAAGCGGGTCAAACCGCCCTCCGGAACGGTCATAACCCCCTCCCGAACGTGCGCTTGACGTGACTGGTCTTTCAGTCTAGCTTTCTGAGAAATACTCCGGGGTTGTAACCCACCATTTTGACCTTTGGTCAGTTTGGTAACACTCCAACCAAACAGCATCTGACCCACCTCCAGCTTGCTGCAGGCCATTTGGACCAAACGGGTTCAGATATCTTGTGGCTAAACCTCTGACCCACCTCCAGTTTACTGCAGGCCTTTTGGACTAAACGGGTACAGACTCTTTGTGGTTAGTTTTTAACTACCCACTGTTTAGCCGCCAACCTGATTTTTATTGTTACAAAATTTTGTGTTTACACATTATTTTCTTACGGTTGGCAGTTTGTTTGGTTGTTTGCACAGTTTTTGCTGATACCAATTTTTACTGTGCTTTTGGTGTTTTCGGCTAAGGCTGTTTTTCACATACTTAGTTTGCTTGAAGTAACCTTCACAACATCTGTTTTGTTTTTGGTTTCTAAGGTAAAGAGTTTCAGGAAAAAACATAGGCGCCCATCTTGTGGTGTCTAGTTTTAATTAATCTGGCAAACAAGTATCAAGTCATCGACTCCCTTTGGAGTGAGACTTACGAGTACCAATTCGCCTATTTTGGCCATCCATATAAAA
B12 yielded an Expression of 1.16E+05.
